Results as given in patent US20100291188A1, “Periostin Inhibitory Compositions for Myocardial Regeneration, Methods of Delivery, and Methods of Using Same” (MUSC FOUNDATION FOR RESEARCH DEVELOPMENT, priority 2008, published 2010).
“Also recorded” adds a separate entry of the source.

How the values were obtained:
[1] = system: Mesenchyme from periostin null mice; assay: Hanging drop culture of periostin null mesenchyme with purified periostin protein, Western analysis for collagen I; format: cell-based, mouse; settings: 7 days, purified periostin protein 10 µg/ml vs PBS
Protocol: FIG. C-4: Periostin regulates collagen I synthesis. Mesenchyme from periostin null mice were placed in hanging drop cultures and incubated with either purified periostin protein (10 µg/ml) or PBS. Mesenchyme from wild-type mice were used as control tissues. After 7 days, tissues were analyzed for periostin and collagen expression by Western analysis. […] Actin is used for protein normalization (B) Graphical representation of Western analyses presented in panel A obtained from densitometric analyses using NIH image software. Values obtained were compared against wild-type values (baseline) and represented as relative percent change. * denotes p<0.05
To further determine the potential for periostin to affect fibroblast differentiation, we compared mesenchymal cells isolated from periostin null and wild-type mice, in addition to performing “rescue” experiments. For this study, we isolated atrioventricular mesenchyme from E12.5 periostin null and wild-type mice and placed them in hanging drop cultures for 7 days. In addition, purified protein was added to a subset of the hanging drops to determine the ability to rescue any defects observed in marker expression. After 7 days, the hanging drops were collected, lysed and Western analyses were performed for the fibroblast markers collagen I[…]I, and I[…]2. […]

[2] = system: wild-type fibroblast; assay: Fibroblast migration on periostin and collagen coated dishes; format: cell-based; settings: varying amounts of periostin and collagen coated on dishes
Protocol: FIG. D-2: Varying amounts of periostin and collagen coated dishes were assayed for their ability to promote wild-type fibroblast migration.
A final additional approach to be considered for this aim involves alternative migration assays. Scratch assays are a standard two-dimensional in vitro “wounding” assay whereby a small scratch is introduced into a confluent monolayer of cells and the time the cells take to invade and fill in the empty area provides a measure of migration^78. Thus, these assays will be employed to assess the 2-dimensional migratory capabilities of the “unidentified cells”. The time it takes for “unidentified” cells to fill the gap will be compared to that of wild-type cardiac fibroblasts. Preliminary data on fibroblasts has been previously performed and serves as a benchmark for comparison (FIG. D-2). This 2-D culture assay will serve as a nice complement to the 3-D migration and invasion assay proposed in Experiment 2.

B1: purified periostin protein: purified periostin protein, 90 kDa secreted matricellular protein; added to culture medium or coated on dishes (protein, UniProt Q15063 22-836, looked up)
Periostin: NNHYDKILAHSRIRGRDQGPNVCALQQILGTKKKYFSTCKNWYKKSICGQKTTVLYECCPGYMRMEGMKGCPAVLPIDHVYGTLGIVGATTTQRYSDASKLREEIEGKGSFTYFAPSNEAWDNLDSDIRRGLESNVNVELLNALHSHMINKRMLTKDLKNGMIIPSMYNNLGLFINHYPNGVVTVNCARIIHGNQIATNGVVHVIDRVLTQIGTSIQDFIEAEDDLSSFRAAAITSDILEALGRDGHFTLFAPTNEAFEKLPRGVLERIMGDKVASEALMKYHILNTLQCSESIMGGAVFETLEGNTIEIGCDGDSITVNGIKMVNKKDIVTNNGVIHLIDQVLIPDSAKQVIELAGKQQTTFTDLVAQLGLASALRPDGEYTLLAPVNNAFSDDTLSMDQRLLKLILQNHILKVKVGLNELYNGQILETIGGKQLRVFVYRTAVCIENSCMEKGSKQGRNGAIHIFREIIKPAEKSLHEKLKQDKRFSTFLSLLEAADLKELLTQPGDWTLFVPTNDAFKGMTSEEKEILIRDKNALQNIILYHLTPGVFIGKGFEPGVTNILKTTQGSKIFLKEVNDTLLVNELKSKESDIMTTNGVIHVVDKLLYPADTPVGNDQLLEILNKLIKYIQIKFVRGSTFKEIPVTVYTTKIITKVVEPKIKVIEGSLQPIIKTEGPTLTKVKIEGEPEFRLIKEGETITEVIHGEPIIKKYTKIIDGVPVEITEKETREERIITGPEIKYTRISTGGGETEETLKKLLQEEVTKVTKFIEGGDGHLFEDEEIKRLLQGDTPVRKLQANKKVQGSRRRLREGRSQ
collagen I expression (collagen Iα1 and Iα2, Western analysis) [1]: rescued; also recorded: induces expression of collagen I[…]1 and I[…]2
collagen I expression (collagen Iα1 and Iα2, Western analysis) ([1]; listed as purified protein): reactivation of collagen isoforms
fibroblast migration [2]: titrating affect of periostin in combination with collagen to stimulate migration
